Source: publication PMC2171675

Biological target: neural cell adhesion molecule (NCAM) (mouse (endogenous in brain)) (UniProt P13595)
Test: co-IP

Sequence of UniProt P13595 (P13595 20-1115): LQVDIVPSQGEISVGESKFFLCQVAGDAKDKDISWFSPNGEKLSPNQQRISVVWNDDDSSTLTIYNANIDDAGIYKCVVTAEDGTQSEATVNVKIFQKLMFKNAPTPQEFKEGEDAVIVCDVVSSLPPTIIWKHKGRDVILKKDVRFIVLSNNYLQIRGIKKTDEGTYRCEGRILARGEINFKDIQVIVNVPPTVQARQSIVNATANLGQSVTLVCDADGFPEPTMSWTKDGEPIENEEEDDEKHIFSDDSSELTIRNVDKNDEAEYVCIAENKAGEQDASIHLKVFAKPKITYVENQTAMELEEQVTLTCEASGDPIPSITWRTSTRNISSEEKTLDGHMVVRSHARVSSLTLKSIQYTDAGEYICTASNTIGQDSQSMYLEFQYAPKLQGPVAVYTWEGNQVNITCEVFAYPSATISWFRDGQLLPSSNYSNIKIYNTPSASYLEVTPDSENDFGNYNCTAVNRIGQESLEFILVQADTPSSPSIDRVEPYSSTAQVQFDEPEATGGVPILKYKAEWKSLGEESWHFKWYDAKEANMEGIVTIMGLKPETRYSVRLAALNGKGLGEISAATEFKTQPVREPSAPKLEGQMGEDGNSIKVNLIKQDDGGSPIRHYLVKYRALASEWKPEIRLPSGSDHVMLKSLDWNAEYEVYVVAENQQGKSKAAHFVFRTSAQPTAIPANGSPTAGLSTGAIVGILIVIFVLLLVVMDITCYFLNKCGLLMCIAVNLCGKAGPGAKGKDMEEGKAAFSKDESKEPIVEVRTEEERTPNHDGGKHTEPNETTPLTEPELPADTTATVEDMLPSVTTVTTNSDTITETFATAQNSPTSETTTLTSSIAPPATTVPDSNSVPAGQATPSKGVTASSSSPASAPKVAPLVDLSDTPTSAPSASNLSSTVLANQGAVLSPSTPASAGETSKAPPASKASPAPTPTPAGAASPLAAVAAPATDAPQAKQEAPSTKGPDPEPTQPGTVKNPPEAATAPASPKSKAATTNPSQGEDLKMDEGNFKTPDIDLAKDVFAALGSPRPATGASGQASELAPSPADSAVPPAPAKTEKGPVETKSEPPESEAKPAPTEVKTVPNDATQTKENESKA

## receptor-like protein tyrosine phosphatase RPTPα (natural protein)
  reduction of the co-immunoprecipitated complex with 2 mM EDTA against with Ca2+: 60%
